Test results taken from patent US11896642.
No end group written: not given here.

B1: HA108 backbone HA, 20PM (peptide)
peptide: GQLYKSILYGSGSGSRR
modifications: not fully specified (C-terminus); also: several peptides per HA backbone, peptide load 20
B2: HA108 backbone HA, 50PM (peptide)
peptide: GQLYKSILYGSGSGSRR
modifications: not fully specified (C-terminus); also: several peptides per HA backbone, peptide load 50
B3: HA108 backbone HA, 30PM (peptide)
peptide: GQLYKSILYGSGSGSRR
modifications: not fully specified (C-terminus); also: several peptides per HA backbone, peptide load 30
B4: HA108 backbone HA, 10PM (peptide)
peptide: GQLYKSILYGSGSGSRR
modifications: not fully specified (C-terminus); also: several peptides per HA backbone, peptide load 10

Target: Rat tail monomeric collagen I (Corning) (rat) (UniProt P02454)
Assay: competitive ELISA on plate-coated rat tail collagen I, competitor biotin Compound 1B; IC50 against that of Compound 1

Row | ratio IC50sample/IC50 Compound 1 | Binder
1 | 2.82 | B1
2 | 7.49 | B2
3 | 13.4 | B3
4 | 14.8 | B4

Target: biotin labeled PDGF-BB (R&D Systems) (UniProt P01127)
Chain of UniProt P01127 (P01127 82-190): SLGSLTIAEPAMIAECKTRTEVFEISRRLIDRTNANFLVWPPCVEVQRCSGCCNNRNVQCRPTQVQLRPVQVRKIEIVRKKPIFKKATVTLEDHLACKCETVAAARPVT
Assay: competitive ELISA: biotin PDGF-BB pre-incubated with conjugate at 1 mg/mL, added to plate-coated PDGF-Rβ Fc; A450 against reference Compound 1 (higher = less inhibition)

Row | ratio Absorbance 450 conjugate/Absorbance 450 reference | Binder
5 | 16.3 | B1
6 | 9.31 | B2
7 | 14.2 | B3
8 | 17 | B4
